Reference: PMC11480844

B1: H2-Kb / H6 (parent)
chain 1: AQKVTQTQTSISVMEKTTVTMDCVYETQDSSYFLFWYKQTASGEIVFLIRQDSYKKENATVGHYSLNFQKPKSSIGLIITATQIEDSAVYFCAMRDYNQGKLIFGQGTKLSIKP
chain 2: EAAVTQSPRSKVAVTGGKVTLSCHQTNNHDYMYWYRQDTGHGLRLIHYSYVADSTEKGDIPDGYKASRPSQENFSLILELASLSQTAVYFCASSGTAANSDYTFGSGTRLLVI
chain 3: not shown
chain 4: IQKTPQIQVYSRHPPENGKPNILNCYVTQFHPPHIEIQMLKNGKKIPKVEMSDMSFSKDWSFYILAHTEFTPTETDTYACRVKHDSMAEPKTVYWDRDM
chain 5: SIINFEKL
B2: H2-Kb / G2 (parent)
chain 1: GEQVEQRPPHLSVREGDSAVIICTYTDPNSYYFFWYKQEPGAGLQLLMKVFSSTEINEGQGFTVLLNKKDKQLSLNLTAAHPGDSAVYFCAVRTNQGGRALIFGTGTTVSVSP
chain 2: EAAVTQSPRSKVAVTGGKVTLSCHQTNNHDYMYWYRQDTGHGLRLIHYSYVADSTEKGDIPDGYKASRPSQENFSLILELASLSQTAVYFCASSGTDTEVFFGKGTRLTVV
chain 3: not shown
chain 4: B1 chain 4
chain 5: SIINFEKL
B3: H2-Kb / B10 (parent)
chain 1: GQQVQQSPASLVLQEGENAELQCNFSSTATRLQWFYQRPGGSLVSLLSNPSGTKHTGRLTSTTVTKERRGSLHISSSQITDSGTYLCAPGGSNAKLTFGKGTKLSVKS
chain 2: DPKIIQKPKYLVAVTGSEKILICEQYLGHNAMYWYRQSAKKPLEFMFSYSYQKLMDNQTASSRFQPQSSKKNHLDLQITALKPDDSATYFCASSLRGGNNQAPLFGEGTRLSVL
chain 3: not shown
chain 4: B1 chain 4
chain 5: SIINFEKL

Variants of: B1
Assay: % of reporter cells activated (NFAT-GFP), raw
Conditions: with H6; scale: % of reporter cells activated
Also: test concentration or dose not given here.

Ratio to parent, by site and new letter:
chain 5 K7: N 0.0979; A 0.097; C 0.125; F 0.111; R 1.36; Y 0.162; P 0.11; L 0.112; V 0.261; Q 0.102; H 0.809; T 0.111; W 0.129; I 0.231; G 0.072; D 0.0822; M 0.188; E 0.122; S 0.0877
chain 5 L8: D 0.209; P 0.26; M 0.538; S 0.129; Y 0.729; K 0.13; I 0.888; Q 0.131; F 0.32; C 0.28; N 0.433; H 0.825; W 0.248; V 0.537; E 0.214; G 0.36; R 0.406; T 0.521; A 0.199
chain 5 I3: W 0.281; Q 1.11; E 1.19; N 1.09; H 0.61; V 1.57; M 1.62; L 1.02; G 0.962; F 0.342; R 0.295; T 0.955; P 1.18; S 0.872; K 0.236; Y 0.236
chain 5 N4: Y 0.358; M 0.111; P 0.519; D 0.132; Q 0.117; K 0.126; T 0.143; E 0.2; L 0.146; H 0.91; A 0.202; I 0.116; C 0.206; F 0.335; W 0.672; S 0.295; R 0.102; G 0.445; V 0.0988
chain 5 S1: I 0.338; F 0.276; C 0.188; A 0.556; M 0.536; R 0.333; L 0.355; W 0.292; N 0.416; K 0.384; Q 0.602; T 0.524; E 0.709; Y 0.424; D 1.53; V 0.294; G 0.517; P 0.141; H 0.446

Variants of: B2
Assay: % of reporter cells activated (NFAT-GFP), raw
Conditions: with G2; scale: % of reporter cells activated

Ratio to parent, by site and new letter:
chain 5 K7: N 1.18; D 1.29; E 1.46; V 1.13; P 1.46; Q 1.12; M 1.34; Y 1.22; A 1.58; H 1.63; L 2.32; I 1.83; G 0.936; S 0.824; T 1.27; W 1.34; F 1.94; C 1.88; R 0.664
chain 5 L8: P 1.24; M 2.01; F 1.09; I 1.04; E 0.696; V 1.32; A 1.06; Y 0.744; H 1.78; G 1.54; K 1.4; W 0.768; Q 1.05; D 0.904; N 1.54; C 1.06; S 1.15; T 0.944; R 1.45
chain 5 E6: R 1.34; Y 1.71; M 1.15; F 1.36; S 1.01; L 1.08; H 1.36; N 1.39; I 1.02; D 1.28; A 1.9; K 1.3; V 1.7; G 1.29; Q 1.41; P 1.53; W 1.31; T 1.73; C 1.18
chain 5 N4: E 0.928; I 1.13; V 1.26; M 1.09; G 0.976; R 0.952; F 1.32; K 1.74; T 0.904; Q 1.18; Y 0.936; L 1.54; H 1.38; P 1.34; A 1.13; C 1.02; S 1.5; W 2.17; D 1.4
chain 5 S1: G 1.47; R 1.02; T 1.07; Y 1.26; M 1.6; N 1.55; A 1.7; K 1.58; Q 1.22; F 1.63; H 1.26; E 1.54; I 1.45; W 1.34; P 1.42; V 0.976; D 1.62; L 1.73; C 1.31
chain 5 F5: Y 1.62; T 1.06; G 1.23; C 1.4; W 1.15; R 0.864; Q 1.24; N 0.984; K 1.36; V 1.42; M 1.31; L 1.46; D 1.77; H 1.51; S 0.88; I 1.06; E 1.34; A 1.38; P 1.42
chain 5 I3: A 1.42; Y 0.904; H 1.18; E 1.55; K 1.5; F 1.19; P 1.44; R 0.8; D 1.26; S 0.936; M 1.88; C 1.38; G 1.39; L 1.34; Q 1.03; N 1.53; W 1.3; T 0.992; V 0.968
chain 5 I2: A 1.66; G 0.928; Y 1.54; S 1.32; K 1.16; F 1.32; R 1.01; P 1.65; E 1.41; L 1.25; V 1.18; Q 1.13; T 1.56; H 1.31; W 1.18; C 1.06; M 0.88; N 1.11; D 1.58

Variants of: B3
Assay: % of reporter cells activated (NFAT-GFP), raw
Conditions: with B10; scale: % of reporter cells activated

Ratio to parent: each site, then its substitutions
chain 5 S1: L 1.32; Y 0.966; C 1.07; Q 0.831; P 0.849; V 1.15; W 1.07; A 0.498; N 1.71; E 0.864; M 1.64; R 0.627; D 0.924; H 1.08
chain 5 F5: A 1.31; H 1.27; K 1.49; S 1.46; I 1.83; M 1.49; W 1.03; D 4.25; V 1.02; G 1.63; R 1.1; E 2.36; C 1.1
chain 5 E6: H 0.924; T 1.75; Y 1.57; V 1.44; Q 1.31; P 0.983; W 1.09; G 1.53
chain 5 L8: E 1.53; D 0.849; C 1.27; W 0.814; M 0.831; Y 0.356; S 0.903; T 0.915; F 1.03; R 1.34; H 0.966; Q 1.11
chain 5 I3: H 1.53; F 0.897; N 0.966; C 0.746; G 1.61; L 1.93; T 1.44; W 0.831
chain 5 K7: L 1.85; F 1.64; V 1.37; R 1.17; P 1.37; N 1.54; W 1; I 2.29; H 2.02; A 1.64; C 1.34
chain 5 N4: Y 2.14; T 1.73; Q 1.19; K 1.32; R 1.37; F 1.51; D 2.53; W 1.66; L 1.05; S 1.01; V 1.85
chain 5 I2: M 0.729; V 2.51; S 1.22; C 2.08; L 0.898; E 1.27; G 0.624; Y 1.22; A 1.03; T 1.49; N 0.875; H 0.888; F 1.5
